According to PMC10786891, “Massively parallel profiling of RNA-targeting CRISPR-Cas13d”:
Positions count from the first letter of the chain named. Names may count otherwise.

Biological target: T1, EsCas13d, nuclease-dead (Eubacterium siraeum, UniProt B0MS50, R295A;H300A;R849A;H854A)
T1 sequence: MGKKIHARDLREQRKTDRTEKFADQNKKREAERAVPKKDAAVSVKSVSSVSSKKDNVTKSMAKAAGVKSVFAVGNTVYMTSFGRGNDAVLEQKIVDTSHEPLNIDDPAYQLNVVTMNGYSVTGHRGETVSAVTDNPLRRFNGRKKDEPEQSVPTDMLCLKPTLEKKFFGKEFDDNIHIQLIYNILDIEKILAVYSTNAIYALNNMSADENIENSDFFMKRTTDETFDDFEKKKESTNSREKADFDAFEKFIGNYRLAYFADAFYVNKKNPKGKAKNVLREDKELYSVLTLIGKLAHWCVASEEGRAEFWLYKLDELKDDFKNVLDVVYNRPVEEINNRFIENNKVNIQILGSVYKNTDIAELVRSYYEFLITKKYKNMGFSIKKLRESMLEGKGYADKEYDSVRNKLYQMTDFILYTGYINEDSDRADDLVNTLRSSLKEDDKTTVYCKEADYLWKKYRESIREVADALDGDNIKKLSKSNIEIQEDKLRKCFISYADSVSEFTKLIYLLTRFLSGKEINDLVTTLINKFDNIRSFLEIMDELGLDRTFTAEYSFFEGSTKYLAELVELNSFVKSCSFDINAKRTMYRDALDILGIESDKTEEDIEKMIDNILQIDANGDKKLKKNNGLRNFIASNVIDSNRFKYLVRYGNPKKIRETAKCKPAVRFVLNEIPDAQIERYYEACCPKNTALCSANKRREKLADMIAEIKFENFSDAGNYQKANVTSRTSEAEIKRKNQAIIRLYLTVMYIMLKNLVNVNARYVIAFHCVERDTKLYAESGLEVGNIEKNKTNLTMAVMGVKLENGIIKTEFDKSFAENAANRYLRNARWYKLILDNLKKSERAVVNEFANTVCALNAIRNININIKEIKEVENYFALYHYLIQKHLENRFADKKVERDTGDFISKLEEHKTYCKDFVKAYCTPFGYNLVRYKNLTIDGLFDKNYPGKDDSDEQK
Assay: crRNA (strand 1, pre-loaded); Mg2+; 40 mM Tris-HCl pH 7.5, 150 mM NaCl, 6 mM MgCl2, 1 mM DTT, 0.1% Tween-20, 0.2 mg/ml BSA; 25 C; 10 min per concentration, then washed
Settings: tags: His6-TwinStrep-SUMO cleaved; N-terminal SNAP kept (SNAP-Surface 488); label: 3' end held by stalled T7 RNA polymerase

B1: target 3 G3C,U7A (mixed)
RNA 1: CACCCGUGCAAAAUUGCAGGGGUCUAAAACGACCUGAAUAUUUCAGAUCAAA
RNA 2: GGGAAUGGAUCCACAUCUACGAAUUCGUUUUUGAUCUGAAAUAUACAGCUCUGCAGAUCGGAAGAGCACACGU
  Kd: 32.9 ± 3.6 nM

B2: target 3 insC 3' of 5,insA 3' of 4 (mixed)
RNA 1: B1 RNA 1
RNA 2: GGGAAUGGAUCCACAUCUACGAAUUCGUUUUUGAUCUGAAAUAUUCACGAGUCUGCAGAUCGGAAGAGCACACGU
  Kd: 9.8 ± 0.9 nM

B3: target 3 insA 3' of 14,insG 3' of 5 (mixed)
RNA 1: B1 RNA 1
RNA 2: B2 RNA 2 with U42A, A43U, U44A, C46U, A47C, C48A, A50G
  Kd: 105 ± 31 nM

B4: target 3 insA 3' of 21 (mixed)
RNA 1: B1 RNA 1
RNA 2: GGGAAUGGAUCCACAUCUACGAAUUCGUUUUAUGAUCUGAAAUAUUCAGGUCUGCAGAUCGGAAGAGCACACGU
  Kd: 33.5 ± 4.5 nM

B5: target 3 insA 3' of 7 (mixed)
RNA 1: B1 RNA 1
RNA 2: GGGAAUGGAUCCACAUCUACGAAUUCGUUUUUGAUCUGAAAUAUUACAGGUCUGCAGAUCGGAAGAGCACACGU
  Kd: 44 ± 8.5 nM

B6: target 3 insG 3' of 6,insA 3' of 4 (mixed)
RNA 1: B1 RNA 1
RNA 2: B2 RNA 2 with A47G, C48A
  Kd: 12.3 ± 1.1 nM

B7: target 3 G3A,A5G (mixed)
RNA 1: B1 RNA 1
RNA 2: B1 RNA 2 with A45U, A47G, C49A
  Kd: 42.5 ± 6 nM

B8: target 3 insG 3' of 8,insA 3' of 7 (mixed)
RNA 1: B1 RNA 1
RNA 2: B2 RNA 2 with U45G, C46U, G49A, A50G
  Kd: 42 ± 6 nM

B9: target 3 C1G,C6U (mixed)
RNA 1: B1 RNA 1
RNA 2: B1 RNA 2 with A45U, C46U, C49G, C51G
  Kd: 22.1 ± 2.55 nM

B10: target 3 insA 3' of 22,insC 3' of 5 (mixed)
RNA 1: B1 RNA 1
RNA 2: GGGAAUGGAUCCACAUCUACGAAUUCGUUUAUUGAUCUGAAAUAUUCACGGUCUGCAGAUCGGAAGAGCACACGU
  Kd: 24.9 ± 3.35 nM

B11: target 3 complement block 5-8 (mixed)
RNA 1: B1 RNA 1
RNA 2: B1 RNA 2 with U44A, C46G, A47U, C49G
  Kd: 60.5 ± 6 nM

B12: target 3 U2C,G14A (mixed)
RNA 1: B1 RNA 1
RNA 2: B1 RNA 2 with G38A, A45U, C49G, U50C
  Kd: ~64.5 nM

B13: target 3 U8C (mixed)
RNA 1: B1 RNA 1
RNA 2: B1 RNA 2 with U44C, A45U, C49G
  Kd: 30.4 ± 2.25 nM

B14: target 3 insU 3' of 4,insU 3' of 1 (mixed)
RNA 1: B1 RNA 1
RNA 2: B2 RNA 2 with C48G, G49U, A50G, G51U, U52C, C53U
  Kd: 37 ± 7 nM

B15: target 3 insG 3' of 7,insA 3' of 7 (mixed)
RNA 1: B1 RNA 1
RNA 2: B2 RNA 2 with C46G, G49A, A50G
  Kd: 39.5 ± 5 nM

B16: target 3 insA 3' of 21,insU 3' of 4 (mixed)
RNA 1: B1 RNA 1
RNA 2: B10 RNA 2 with A31U, U32A, C49G, G50U
  Kd: 11.9 ± 2.1 nM

B17: target 3 G4C,A12C (mixed)
RNA 1: B1 RNA 1
RNA 2: B1 RNA 2 with A40C, A45U, G48C, C49G
  Kd: 95 ± 30 nM

B18: target 3 insU 3' of 16,insU 3' of 4 (mixed)
RNA 1: B1 RNA 1
RNA 2: B10 RNA 2 with A31U, U33G, G34A, A35U, U36C, C37U, C49G, G50U
  Kd: 37 ± 7 nM

B19: target 3 insU 3' of 4,insG 3' of 1 (mixed)
RNA 1: B1 RNA 1
RNA 2: B2 RNA 2 with C48G, G49U, A50G, G51U, U52C, C53G
  Kd: 43 ± 11.5 nM

B20: target 3 A5C,U22A (mixed)
RNA 1: B1 RNA 1
RNA 2: B1 RNA 2 with U30A, A45U, A47C, C49G
  Kd: 60.5 ± 10.5 nM

B21: target 3 insC 3' of 22,insU 3' of 3 (mixed)
RNA 1: B1 RNA 1
RNA 2: B10 RNA 2 with A31C, C49G, G51U
  Kd: 58 ± 10 nM

B22: target 3 insC 3' of 9,insG 3' of 8 (mixed)
RNA 1: B1 RNA 1
RNA 2: B2 RNA 2 with U44C, C46G, A47U, G49A, A50G
  Kd: 82.5 ± 12.5 nM

B23: target 3 insC 3' of 8,insG 3' of 6 (mixed)
RNA 1: B1 RNA 1
RNA 2: B2 RNA 2 with U45C, C46U, A47C, C48G, G49A, A50G
  Kd: 79.5 ± 20.5 nM

B24: target 3 U2A,U22G (mixed)
RNA 1: B1 RNA 1
RNA 2: B1 RNA 2 with U30G, A45U, C49G, U50A
  Kd: 65.5 ± 11.5 nM

B25: target 3 insU 3' of 22,insC 3' of 9 (mixed)
RNA 1: B1 RNA 1
RNA 2: B10 RNA 2 with A31U, U45C, C47U, A48C, C49A
  Kd: 82.5 ± 21.5 nM

B26: target 3 complement block 4-9 (mixed)
RNA 1: B1 RNA 1
RNA 2: B1 RNA 2 with A43U, U44A, C46G, A47U, G48C, C49G
  Kd: 67.5 ± 18 nM

B27: target 1 C6A,U11G (mixed)
RNA 1: CACCCGUGCAAAAAUGCAGGGGUCUAAAACUGAGCGGAUAACCUCUCUAUGG
RNA 2: GGGAAUGGAUCCACAUCUACGAAUUCGUACCAUAGAGAGGGUAUCAGCUCACCGAGAUCGGAAGAGCACACGU
  Kd: 10.8 ± 0.4 nM

B28: target 1 C6G,C22A (mixed)
RNA 1: B27 RNA 1
RNA 2: B27 RNA 2 with C30A, G41U, A46G
  Kd: 14.7 ± 1 nM
